# In US20190077863A1 (AERPIO PHARMACEUTICALS, published 2019):
# Numbering of substitutions follows the chain as printed. Numbers in names are those of the source.
# B1: humanized R15E6 variant HC1LC1 (antibody, human IgG4 S228P, kappa, V domains shown)
# VH: EVQLVESGGGLVQPGGSLKLSCAASGFTFNANAMNWVRQASGKGLEWVGRIRTKSNNYATYYAGSVKDRFTISRDDSKNTAYLQMNSLKTEDTAAYYCVRDYYGSSAWITYWGQGTLVTVSS
# VL: DVVMTQSPSFLSASVGDRVTITCKASQHVGTAVAWYQQRPGKAPKLLIYWASTRHTGVPSRFSGSGSGTEFTLTISSLQPEDFATYFCQQYSSYPFTFGGGTKLEIKR
# notes: Human IgG4 (S228P) / kappa, expressed in CHO cells; Signal peptides left out by range; also called VH1-VL1
# B2: humanized R15E6 variant HC1LC3 (antibody, human IgG4 S228P, kappa, V domains shown)
# VH: B1 VH
# VL: B1 VL with V2I, V3Q, S9F, F10S, R39K, E70D
# notes: Human IgG4 (S228P) / kappa, expressed in CHO cells; Signal peptides left out by range; also called VH1-VL3
# B3: humanized R15E6 variant HC3LC1 (antibody, human IgG4 S228P, kappa, V domains shown)
# VH: B1 VH with G16R, K19R, A23T, S41P, T80I, A95V
# VL: B1 VL
# notes: Human IgG4 (S228P) / kappa, expressed in CHO cells; Signal peptides left out by range; also called VH3-VL1
# B4: humanized R15E6 variant HC3LC3 (antibody, human IgG4 S228P, kappa, V domains shown)
# VH: B1 VH with G16R, K19R, A23T, S41P, T80I, A95V
# VL: B1 VL with V2I, V3Q, S9F, F10S, R39K, E70D
# notes: Human IgG4 (S228P) / kappa, expressed in CHO cells; Signal peptides left out by range; also called VH3-VL3
# B5: humanized R15E6 variant HC4LC1 (antibody, human IgG4 S228P, kappa, V domains shown)
# VH: LVQLVESGGGLVKPGGSLRLSCAASGFTFNANAMNWIRQAPGKGLEWVSRIRTKSNNYATYYAGSVKDRFTISRDNAKNSLYLQMNSLRAEDTAVHYCVRDYYGSSAWITYWGQGTLVTVSS
# VL: B1 VL
# notes: Human IgG4 (S228P) / kappa, expressed in CHO cells; Signal peptides left out by range; also called VH4-VL1
# B6: humanized R15E6 variant HC3LC2 (antibody, human IgG4 S228P, kappa, V domains shown)
# VH: B1 VH with G16R, K19R, A23T, S41P, T80I, A95V
# VL: DIVMTQSPDSLAVSLGERATINCKASQHVGTAVAWYQQKPGQPPKLLIYWASTRHTGVPDRFSGSGSGTDFTLTISSLQAEDVAVYYCQQYSSYPFTFGQGTKLEIKR
# notes: Human IgG4 (S228P) / kappa, expressed in CHO cells; Signal peptides left out by range; also called VH3-VL2
# B7: humanized R15E6 variant HC4LC2 (antibody, human IgG4 S228P, kappa, V domains shown)
# VH: B5 VH
# VL: B6 VL
# notes: Human IgG4 (S228P) / kappa, expressed in CHO cells; Signal peptides left out by range; also called VH4-VL2
# B8: humanized R15E6 variant HC4LC4 (antibody, human IgG4 S228P, kappa, V domains shown)
# VH: B5 VH
# VL: B6 VL with G41E, Q100G, L104V
# notes: Human IgG4 (S228P) / kappa, expressed in CHO cells; Signal peptides left out by range; also called VH4-VL4
# Key:
# [1] = target: T1, Human VE-PTP (HPTP-β) containing first eight FN3 repeats with C-terminal His6 tag (Human ½ VE-PTP ECD) (human, UniProt P23467 23-820); assay: ELISA: HPTP-β antigen coated on the plate, antibody serially diluted (10,000 to 9.765 ng/mL), goat anti-human HRP (Fc specific), OD 450 nm
# T1 construct: Produced in HEK293 cells and purified by the His tag; it was not cut off; also called Human Beta ½ ECD
# T1 sequence: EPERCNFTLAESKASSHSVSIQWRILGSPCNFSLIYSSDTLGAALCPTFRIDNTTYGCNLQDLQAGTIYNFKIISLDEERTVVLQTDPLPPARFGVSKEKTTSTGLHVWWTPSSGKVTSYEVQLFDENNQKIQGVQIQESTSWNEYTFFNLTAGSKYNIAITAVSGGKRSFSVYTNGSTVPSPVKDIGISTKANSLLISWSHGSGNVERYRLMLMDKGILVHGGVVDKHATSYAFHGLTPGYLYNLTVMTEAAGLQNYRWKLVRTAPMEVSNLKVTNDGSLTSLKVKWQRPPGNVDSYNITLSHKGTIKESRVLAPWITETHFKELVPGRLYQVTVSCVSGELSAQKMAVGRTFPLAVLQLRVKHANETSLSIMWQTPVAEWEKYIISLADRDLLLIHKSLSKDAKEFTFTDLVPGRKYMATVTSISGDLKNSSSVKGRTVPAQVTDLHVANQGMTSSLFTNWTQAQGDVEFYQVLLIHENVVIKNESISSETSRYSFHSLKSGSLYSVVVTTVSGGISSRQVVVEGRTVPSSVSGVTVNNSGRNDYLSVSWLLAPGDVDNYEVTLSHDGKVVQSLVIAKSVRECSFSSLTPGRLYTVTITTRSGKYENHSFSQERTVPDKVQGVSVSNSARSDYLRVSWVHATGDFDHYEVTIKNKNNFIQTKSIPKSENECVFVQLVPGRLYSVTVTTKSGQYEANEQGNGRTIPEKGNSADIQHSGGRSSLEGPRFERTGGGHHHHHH
# Procedure: (§1) Each humanized variant was measured for affinity to the antigen, human VE-PTP (HPTP-β), using ELISA. […] of the VE-PTP (HPTP-β) antigen were immobilized onto 96-well Maxisorp plates in coating buffer (0.5 mM NaHCO₃ brought to pH 9.6 by the addition of 0.5 mM Na₂CO₃) overnight at 4° C. The coating buffer was then removed and 200 μL/well of block solution (3% w/v semi-skimmed milk powder, PBS) was added and agitated for 2 hrs at room temperature. The plate was washed four times with PBS-T (1% v/v Tween 20). 100 μL/well was added of purified R15E6 variants serially diluted from 10,000 ng/mL to 9.765 ng/mL in PBS-TB (0.05% v/v Tween 20, 0.5% w/v BSA). Following agitation for 2 hrs at room temperature, the plate was washed 4× with PBS-T. 100 μL/well goat anti-human HRP (Fc specific) at a ratio of 1:60,000 PBS was then added and the plates were incubated for an additional hour with agitation at room temperature. The plate was then washed 6× with PBS-T and once in PBS. Next, 100 μL/well of TMB substrate solution was added and incubated at 37° C. for 10 min. 50 μL 1 M HCl was added per well and the plate immediately read at 450 nm on a Tecan Sunrise plate reader. […] The binding of the HC4 variants was much lower than with the other heavy chains variants compared to HC0LC0 (FIG. 17).
# [2] = target: T1, Human VE-PTP (HPTP-β) containing first …; assay: ELISA: HPTP-β antigen coated on the plate, antibody serially diluted, goat anti-human HRP (Fc specific), OD 450 nm
# Procedure: as §1
# [3] = target: T1, Human VE-PTP (HPTP-β) containing first …; assay: ELISA, coated antigen, antibody 10,000 to 9.765 ng/mL
# Procedure: as §1
# [4] = target: T1, Human VE-PTP (HPTP-β) containing first …; assay: SPR (Biacore 3000), antibody captured on anti-human IgG, antigen as analyte 25-0 nM
# Procedure: (§2) Samples of each variant were further assessed by Biacore analysis to determine the binding affinity. Antibody binding experiments were performed on Biacore 3000™ at 25° C. Assay buffer: 10 mM HEPES buffer (pH 7.4), 150 mM NaCl, 3 mM EDTA, 0.05% P20 (polyoxyethylenesorbitan). […] Conjugation buffer: 10 mM sodium acetate buffer (pH 5). The flow rate used for capturing the ligand was 5 μL/min. The flow rate for the kinetic analysis was 50 μL/min. Flow cell 1 and […] of the CM5 chip were coated with maximum amounts of goat anti-human IgG. Approximately 150 RU of the test antibody was captured on flow cell 2, 3, and 4 as indicated. The antigen was flowed over the chip. Binding of the antigen to the antibodies was monitored in real time. The KD was determined from the observed kₒₙ and koff values.
# [5] = target: T1, Human VE-PTP (HPTP-β) containing first …; assay: SPR (Biacore 3000), antibody captured on anti-human IgG, antigen as analyte 100 nM (single concentration)
# Procedure: as §2
# A scouting analysis was performed using single analyte concentrations as indicated. At these concentrations, binding can be observed even if the ligand binding is weak. Flow cell 1 response was used for reference subtraction.
binder,measurement,setting,value
B1,binding result,[1],binds
B2,binding result,[1],binds
B3,binding result,[2],binds
B4,binding result,[2],binds
B5,binding result,[3],binds
B6,Ka,[4],4.3e+07 M⁻¹
same,Kd,[4],23.2 nM
same,koff,[4],0.00123 s⁻¹
same,kon,[4],53900 M⁻¹ s⁻¹
same,Ka,[5],2.06e+08 M⁻¹
same,Kd,[5],4.84 nM
same,koff,[5],0.000993 s⁻¹
same,kon,[5],205000 M⁻¹ s⁻¹
B7,binding result,[3],binds
B8,binding result,[3],binds
